# Test results taken from IntAct's records for PubMed 21946561.
# B1: Neuronal tyrosine-phosphorylated phosphoinositide-3-kinase adapter 1 (Mus musculus), Q6PFX7 (parent)
# chain: MNLLYRKTKLEWRQHKEEEAKRSSSKEAAPTGPVGPGAVPGPGVRVRDIASLRRSLRMGFMTMPASQEHTPHPCRSTMAPRSLSCHSVGSMDSVGGGPGGGLTEDSSTRRPPAKPRRHPSTKLSMAGPGAETPPSKKAGSQKPAPECRESSRKVPPQKPRRSPNTQLSVSFDESCAPAPSPRGANLPLQRLSRASRITGDLDAGAQEEEPVYIEMVGDVFRGGGRSGGGLAGPPLGSGGPTPPAAADSDSEDSEAIYEEMKYPLPEEAGDGRANGPPPLTAPSPPQQTHILQPHPHPHRRPASALPSRRDGTPTKTTPCEIPPPFPNLLQHRPPLLAFPQAKSASRAPGDGVSRLPVLCHSKEPAGSTPAPQVPARERETPPLPPPPPAANLLLLGPSGRARSHSTPLPPQGSGQTRGERELPNSHSMICPKAAGVPAAHPAPAALLPGPPKDKAVSYTMVYSAVKVTTHSVLPAGPPLGVGEPKTEEISVLHGMLCASSRPPVPGKSSPHSGAMGSAAGVLHHRSCLASPHSLPDPTGGSLTPLWTYPATAAGLKRPPAYDSLKAGGVLNKGCGMGAPSPMVKIQLQEQGTDGGAFASISCAHVIASAGTPEEEEEMGAAFGAGWALQRKVLYGGRKAKEVDTEEDGARAWNGSTEGPGKVEHEDRGPVPSGIPVRSQGAEGLLARIHHDRGGSRTALPVPCQTFPACHRNGDFTGGYRLGRSASTSGVRQAALHTPRPCSQPRDALSQTHPVLPLPLPPQPARERDGKLLEVIERKRCVCKEIKARHRPDRGLCKQESMPILPSWRRVPEPRKSGTPPCRRQHTVLWDTAI
# B2: Neuronal tyrosine-phosphorylated phosphoinositide-3-kinase adapter 2 (Mus musculus), Q8BM65-4 (parent)
# chain: MIPSKMMSANPEEDPLDTFFQYIEDMGMKAYDGLVIQNASDIARENDRLRNETKLAYLKEKNEKRRRQEETIKRIGGEVGRGQDASYAGKHFRMGFMTMPAPQDRLPHPCSSGFTVRSQSLHSVGGTEDDSSCGSRRQPPPKPKRDPSTKLSTSSETVNSTAASKSGRSLERAEGKFTVPASHSPPRASTSGHLFPSPGSQERNIKVSAKPRPHSDEYSKKIPPPKPKRNPNTQLSTSFDETYIKKHVPRRTSLPRDSSLSQVCSPAADPEEEEPVYIEMVGNILRDFRKEEDDQSEAVYEEMKYPIFDDLGHDSKCDFDHHSCSSQCATPTVPDLDFVKSSGPCTPKGLLCDIPPPFPNLLSHRPPLLVFPPAPVHCSPNSDESPLTPLEVTKLPVLENVSYMKQPPGACPSSLPSHGSSHAKDQTGALGPAPGASILSSSPPPPSTLYRTQSPHGYPKSHSTSPSPVSMGRSLTPLSLKRPPPYDAVHSGSLSRSSSSVPHTTPRPVSQDGAKMVNAAVNTYSAAQSGSRSRTPTSPLEELTSLFTSGRSLLRKSSSGRRSKEPAEKSTEELKVRSHSTEPLPKLDSKERGHYGSSSSREPVKAQEWDGTPGPPVVTSRMGRCSVSPTLLAGNHSSEPKVSCKLGRSASTSGVPPPSVTPLRQASDLQQSQVACMQWFHGDHTMLEMIEKKRCLCKEIKARQKTEKGLCKQDSMPILPSWKKNAGAKKYSPPPYSKQQTVFWDTAI
# Variants of: B1
# Conditions: with p85a_human PIK3R1, P27986
row,Variant,effect of a mutation on the interaction
1,Y257F,disrupting interaction
2,Y212F,disrupting interaction

# Variants of: B1
# Conditions: with p85a_human PIK3R1, P27986
# Remark: another data set of the same source
# Target sequence in this assay (P27986 whole entry): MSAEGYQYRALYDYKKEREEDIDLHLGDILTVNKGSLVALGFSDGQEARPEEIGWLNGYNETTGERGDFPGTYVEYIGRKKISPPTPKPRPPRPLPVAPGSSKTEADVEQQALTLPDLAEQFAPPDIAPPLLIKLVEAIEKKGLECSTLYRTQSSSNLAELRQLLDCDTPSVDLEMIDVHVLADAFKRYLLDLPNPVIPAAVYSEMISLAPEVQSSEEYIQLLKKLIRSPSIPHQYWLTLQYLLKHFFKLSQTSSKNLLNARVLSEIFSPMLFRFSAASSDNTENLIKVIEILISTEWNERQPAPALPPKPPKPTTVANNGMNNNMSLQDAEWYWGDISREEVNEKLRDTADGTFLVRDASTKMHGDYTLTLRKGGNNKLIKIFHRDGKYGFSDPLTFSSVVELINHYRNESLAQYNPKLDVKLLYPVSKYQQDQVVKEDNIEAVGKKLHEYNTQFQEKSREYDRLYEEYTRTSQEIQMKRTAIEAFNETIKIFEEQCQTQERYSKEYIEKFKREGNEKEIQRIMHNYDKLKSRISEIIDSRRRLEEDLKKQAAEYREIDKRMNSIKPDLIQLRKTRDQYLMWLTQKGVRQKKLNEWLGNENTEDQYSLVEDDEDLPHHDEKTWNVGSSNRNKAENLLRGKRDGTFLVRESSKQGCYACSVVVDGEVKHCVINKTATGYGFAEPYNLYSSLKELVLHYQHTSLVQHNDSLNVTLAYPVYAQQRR
row,Variant,effect of a mutation on the interaction
1,Y257F,decreasing interaction

# Variants of: B2
# Conditions: with p85a_human PIK3R1, P27986
# Target sequence in this assay (P27986 whole entry): as above
row,Variant,effect of a mutation on the interaction
1,Y300F,disrupting interaction
2,Y277F,disrupting interaction
